# Measured values published in the supplement of paper PMC11908140.
# B1: library; numbered along this chain (parent)
# chain: MRKPRAAVGSGHRKQAASQEGRQKHAKNNSQAKPSACDGLARQPEEVVLQASVSSYHLFRDVAEVTAFRGSLLSWYDQEKRDLPWRRRAEDEMDLDRRAYAVWVSEVMLQQTQVATVINYYTGWMQKWPTLQDLASASLEEVNQLWAGLGYYSRGRRLQEGARKVVEELGGHMPRTAETLQQLLPGVGRYTAGAIASIAFGQATGVVDGNVARVLCRVRAIGADPSSTLVSQQLWGLAQQLVDPARPGDFNQAAMELGATVCTPQRPLCSQCPVESLCRARQRVEQEQLLASGSLSGSPDVEECAPNTGQCHLCLPPSEPWDQTLGVVNFPRKASRKPPREESSATCVLEQPGALGAQILLVQRPNSGLLAGLWEFPSVTWEPSEQLQRKALLQELQRWAGPLPATHLRHLGEVVHTFSHIKLTYQVYGLALEGQTPVTTVPPGARWLTQEEFHTAAVSTAMKKVFRVYQGQQPGTCMGSKRSQVSSPCSRKKPRMGQQVLDNFFRSHISTDAHSLNSAAQ
# Variants of: B1
# Assay: 8OG:A repair function score (normalized; synonymous = 0, nonsense = -1) (normalized log-likelihood score); higher = more repair activity (WT-like)
# Settings: with 8OG:A DNA repair reporter (GFP) in HEK-293 MUTYH KO cells
# Procedure: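 Saturation mutagenesis (NNN codon scan) of the MUTYH cDNA (521-aa nuclear isoform NM_001048174.1 / NP_001041639), stably expressed under doxycycline induction in HEK-293 MUTYH knockout cells. Cells were co-transfected with an 8OG:A-bearing GFP repair reporter plus mCherry and sorted 72 h later into GFP+ and GFP− bins, three replicates per tile. The Rosace log2 enrichment (GFP+ vs GFP−) was converted per tile to a normalized function score with synonymous variants centered at 0 and nonsense variants (codons 1-471) at -1; low-abundance variants were removed.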
row,Variant,8OG:A repair function score
1,MRKPRAAVGSGHRKQAASQEGRQKHAKNNSQAKPSACDGLARQPEEVVLQASVSSYHLFRDVAEVTAFRGSLLSWYDQEKRDLPWRRRAEDEMDLDRRAYAVWVSEVMLQQTQVATVINYYTGWMQKWPTLQDLAKASLEEVNQLWAGLGYYSRGRRLQEGARKVVEELGGHMPRTAETLQQLLPGVGRYTAGAIASIAFGQATGVVDGNVARVLCRVRAIGADPSSTLVSQQLWGLAQQLVDPARPGDFNQAAMELGATVCTPQRPLCSQCPVESLCRARQRVEQEQLLASGSLSGSPDVEECAPNTGQCHLCLPPSEPWDQTLGVVNFPRKASRKPPREESSATCVLEQPGALGAQILLVQRPNSGLLAGLWEFPSVTWEPSEQLQRKALLQELQRWAGPLPATHLRHLGEVVHTFSHIKLTYQVYGLALEGQTPVTTVPPGARWLTQEEFHTAAVSTAMKKVFRVYQGQQPGTCMGSKRSQVSSPCSRKKPRMGQQVLDNFFRSHISTDAHSLNSAAQ [S136K],0.0771
2,MRKPRAAVGSGHRKQAASQEGRQKHAKNNSQAKPSACDGLARQPEEVVLQASVSSYHLFRDVAEVTAFRGSLLSWYDQEKRDLPWRRRAEDEMDLDRRAYAVWVSEVMLQQTQVATVINYYTGWMQKWPTLQDLAPASLEEVNQLWAGLGYYSRGRRLQEGARKVVEELGGHMPRTAETLQQLLPGVGRYTAGAIASIAFGQATGVVDGNVARVLCRVRAIGADPSSTLVSQQLWGLAQQLVDPARPGDFNQAAMELGATVCTPQRPLCSQCPVESLCRARQRVEQEQLLASGSLSGSPDVEECAPNTGQCHLCLPPSEPWDQTLGVVNFPRKASRKPPREESSATCVLEQPGALGAQILLVQRPNSGLLAGLWEFPSVTWEPSEQLQRKALLQELQRWAGPLPATHLRHLGEVVHTFSHIKLTYQVYGLALEGQTPVTTVPPGARWLTQEEFHTAAVSTAMKKVFRVYQGQQPGTCMGSKRSQVSSPCSRKKPRMGQQVLDNFFRSHISTDAHSLNSAAQ [S136P],-0.137
3,MRKPRAAVGSGHRKQAASQEGRQKHAKNNSQAKPSACDGLARQPEEVVLQASVSSYHLFRDVAEVTAFRGSLLSWYDQEKRDLPWRRRAEDEMDLDRRAYAVWVSEVMLQQTQVATVINYYTGWMQKWPTLQDLAFASLEEVNQLWAGLGYYSRGRRLQEGARKVVEELGGHMPRTAETLQQLLPGVGRYTAGAIASIAFGQATGVVDGNVARVLCRVRAIGADPSSTLVSQQLWGLAQQLVDPARPGDFNQAAMELGATVCTPQRPLCSQCPVESLCRARQRVEQEQLLASGSLSGSPDVEECAPNTGQCHLCLPPSEPWDQTLGVVNFPRKASRKPPREESSATCVLEQPGALGAQILLVQRPNSGLLAGLWEFPSVTWEPSEQLQRKALLQELQRWAGPLPATHLRHLGEVVHTFSHIKLTYQVYGLALEGQTPVTTVPPGARWLTQEEFHTAAVSTAMKKVFRVYQGQQPGTCMGSKRSQVSSPCSRKKPRMGQQVLDNFFRSHISTDAHSLNSAAQ [S136F],-0.278
4,MRKPRAAVGSGHRKQAASQEGRQKHAKNNSQAKPSACDGLARQPEEVVLQASVSSYHLFRDVAEVTAFRGSLLSWYDQEKRDLPWRRRAEDEMDLDRRAYAVWVSEVMLQQTQVATVINYYTGWMQKWPTLQDLAQASLEEVNQLWAGLGYYSRGRRLQEGARKVVEELGGHMPRTAETLQQLLPGVGRYTAGAIASIAFGQATGVVDGNVARVLCRVRAIGADPSSTLVSQQLWGLAQQLVDPARPGDFNQAAMELGATVCTPQRPLCSQCPVESLCRARQRVEQEQLLASGSLSGSPDVEECAPNTGQCHLCLPPSEPWDQTLGVVNFPRKASRKPPREESSATCVLEQPGALGAQILLVQRPNSGLLAGLWEFPSVTWEPSEQLQRKALLQELQRWAGPLPATHLRHLGEVVHTFSHIKLTYQVYGLALEGQTPVTTVPPGARWLTQEEFHTAAVSTAMKKVFRVYQGQQPGTCMGSKRSQVSSPCSRKKPRMGQQVLDNFFRSHISTDAHSLNSAAQ [S136Q],-0.0528
5,MRKPRAAVGSGHRKQAASQEGRQKHAKNNSQAKPSACDGLARQPEEVVLQASVSSYHLFRDVAEVTAFRGSLLSWYDQEKRDLPWRRRAEDEMDLDRRAYAVWVSEVMLQQTQVATVINYYTGWMQKWPTLQDLATASLEEVNQLWAGLGYYSRGRRLQEGARKVVEELGGHMPRTAETLQQLLPGVGRYTAGAIASIAFGQATGVVDGNVARVLCRVRAIGADPSSTLVSQQLWGLAQQLVDPARPGDFNQAAMELGATVCTPQRPLCSQCPVESLCRARQRVEQEQLLASGSLSGSPDVEECAPNTGQCHLCLPPSEPWDQTLGVVNFPRKASRKPPREESSATCVLEQPGALGAQILLVQRPNSGLLAGLWEFPSVTWEPSEQLQRKALLQELQRWAGPLPATHLRHLGEVVHTFSHIKLTYQVYGLALEGQTPVTTVPPGARWLTQEEFHTAAVSTAMKKVFRVYQGQQPGTCMGSKRSQVSSPCSRKKPRMGQQVLDNFFRSHISTDAHSLNSAAQ [S136T],0.078
6,MRKPRAAVGSGHRKQAASQEGRQKHAKNNSQAKPSACDGLARQPEEVVLQASVSSYHLFRDVAEVTAFRGSLLSWYDQEKRDLPWRRRAEDEMDLDRRAYAVWVSEVMLQQTQVATVINYYTGWMQKWPTLQDLARASLEEVNQLWAGLGYYSRGRRLQEGARKVVEELGGHMPRTAETLQQLLPGVGRYTAGAIASIAFGQATGVVDGNVARVLCRVRAIGADPSSTLVSQQLWGLAQQLVDPARPGDFNQAAMELGATVCTPQRPLCSQCPVESLCRARQRVEQEQLLASGSLSGSPDVEECAPNTGQCHLCLPPSEPWDQTLGVVNFPRKASRKPPREESSATCVLEQPGALGAQILLVQRPNSGLLAGLWEFPSVTWEPSEQLQRKALLQELQRWAGPLPATHLRHLGEVVHTFSHIKLTYQVYGLALEGQTPVTTVPPGARWLTQEEFHTAAVSTAMKKVFRVYQGQQPGTCMGSKRSQVSSPCSRKKPRMGQQVLDNFFRSHISTDAHSLNSAAQ [S136R],0.0299
7,MRKPRAAVGSGHRKQAASQEGRQKHAKNNSQAKPSACDGLARQPEEVVLQASVSSYHLFRDVAEVTAFRGSLLSWYDQEKRDLPWRRRAEDEMDLDRRAYAVWVSEVMLQQTQVATVINYYTGWMQKWPTLQDLALASLEEVNQLWAGLGYYSRGRRLQEGARKVVEELGGHMPRTAETLQQLLPGVGRYTAGAIASIAFGQATGVVDGNVARVLCRVRAIGADPSSTLVSQQLWGLAQQLVDPARPGDFNQAAMELGATVCTPQRPLCSQCPVESLCRARQRVEQEQLLASGSLSGSPDVEECAPNTGQCHLCLPPSEPWDQTLGVVNFPRKASRKPPREESSATCVLEQPGALGAQILLVQRPNSGLLAGLWEFPSVTWEPSEQLQRKALLQELQRWAGPLPATHLRHLGEVVHTFSHIKLTYQVYGLALEGQTPVTTVPPGARWLTQEEFHTAAVSTAMKKVFRVYQGQQPGTCMGSKRSQVSSPCSRKKPRMGQQVLDNFFRSHISTDAHSLNSAAQ [S136L],-0.0288
8,MRKPRAAVGSGHRKQAASQEGRQKHAKNNSQAKPSACDGLARQPEEVVLQASVSSYHLFRDVAEVTAFRGSLLSWYDQEKRDLPWRRRAEDEMDLDRRAYAVWVSEVMLQQTQVATVINYYTGWMQKWPTLQDLAMASLEEVNQLWAGLGYYSRGRRLQEGARKVVEELGGHMPRTAETLQQLLPGVGRYTAGAIASIAFGQATGVVDGNVARVLCRVRAIGADPSSTLVSQQLWGLAQQLVDPARPGDFNQAAMELGATVCTPQRPLCSQCPVESLCRARQRVEQEQLLASGSLSGSPDVEECAPNTGQCHLCLPPSEPWDQTLGVVNFPRKASRKPPREESSATCVLEQPGALGAQILLVQRPNSGLLAGLWEFPSVTWEPSEQLQRKALLQELQRWAGPLPATHLRHLGEVVHTFSHIKLTYQVYGLALEGQTPVTTVPPGARWLTQEEFHTAAVSTAMKKVFRVYQGQQPGTCMGSKRSQVSSPCSRKKPRMGQQVLDNFFRSHISTDAHSLNSAAQ [S136M],0.116
9,MRKPRAAVGSGHRKQAASQEGRQKHAKNNSQAKPSACDGLARQPEEVVLQASVSSYHLFRDVAEVTAFRGSLLSWYDQEKRDLPWRRRAEDEMDLDRRAYAVWVSEVMLQQTQVATVINYYTGWMQKWPTLQDLANASLEEVNQLWAGLGYYSRGRRLQEGARKVVEELGGHMPRTAETLQQLLPGVGRYTAGAIASIAFGQATGVVDGNVARVLCRVRAIGADPSSTLVSQQLWGLAQQLVDPARPGDFNQAAMELGATVCTPQRPLCSQCPVESLCRARQRVEQEQLLASGSLSGSPDVEECAPNTGQCHLCLPPSEPWDQTLGVVNFPRKASRKPPREESSATCVLEQPGALGAQILLVQRPNSGLLAGLWEFPSVTWEPSEQLQRKALLQELQRWAGPLPATHLRHLGEVVHTFSHIKLTYQVYGLALEGQTPVTTVPPGARWLTQEEFHTAAVSTAMKKVFRVYQGQQPGTCMGSKRSQVSSPCSRKKPRMGQQVLDNFFRSHISTDAHSLNSAAQ [S136N],-0.0676
10,MRKPRAAVGSGHRKQAASQEGRQKHAKNNSQAKPSACDGLARQPEEVVLQASVSSYHLFRDVAEVTAFRGSLLSWYDQEKRDLPWRRRAEDEMDLDRRAYAVWVSEVMLQQTQVATVINYYTGWMQKWPTLQDLAIASLEEVNQLWAGLGYYSRGRRLQEGARKVVEELGGHMPRTAETLQQLLPGVGRYTAGAIASIAFGQATGVVDGNVARVLCRVRAIGADPSSTLVSQQLWGLAQQLVDPARPGDFNQAAMELGATVCTPQRPLCSQCPVESLCRARQRVEQEQLLASGSLSGSPDVEECAPNTGQCHLCLPPSEPWDQTLGVVNFPRKASRKPPREESSATCVLEQPGALGAQILLVQRPNSGLLAGLWEFPSVTWEPSEQLQRKALLQELQRWAGPLPATHLRHLGEVVHTFSHIKLTYQVYGLALEGQTPVTTVPPGARWLTQEEFHTAAVSTAMKKVFRVYQGQQPGTCMGSKRSQVSSPCSRKKPRMGQQVLDNFFRSHISTDAHSLNSAAQ [S136I],-0.0848
11,MRKPRAAVGSGHRKQAASQEGRQKHAKNNSQAKPSACDGLARQPEEVVLQASVSSYHLFRDVAEVTAFRGSLLSWYDQEKRDLPWRRRAEDEMDLDRRAYAVWVSEVMLQQTQVATVINYYTGWMQKWPTLQDLAHASLEEVNQLWAGLGYYSRGRRLQEGARKVVEELGGHMPRTAETLQQLLPGVGRYTAGAIASIAFGQATGVVDGNVARVLCRVRAIGADPSSTLVSQQLWGLAQQLVDPARPGDFNQAAMELGATVCTPQRPLCSQCPVESLCRARQRVEQEQLLASGSLSGSPDVEECAPNTGQCHLCLPPSEPWDQTLGVVNFPRKASRKPPREESSATCVLEQPGALGAQILLVQRPNSGLLAGLWEFPSVTWEPSEQLQRKALLQELQRWAGPLPATHLRHLGEVVHTFSHIKLTYQVYGLALEGQTPVTTVPPGARWLTQEEFHTAAVSTAMKKVFRVYQGQQPGTCMGSKRSQVSSPCSRKKPRMGQQVLDNFFRSHISTDAHSLNSAAQ [S136H],-0.136
12,MRKPRAAVGSGHRKQAASQEGRQKHAKNNSQAKPSACDGLARQPEEVVLQASVSSYHLFRDVAEVTAFRGSLLSWYDQEKRDLPWRRRAEDEMDLDRRAYAVWVSEVMLQQTQVATVINYYTGWMQKWPTLQDLAGASLEEVNQLWAGLGYYSRGRRLQEGARKVVEELGGHMPRTAETLQQLLPGVGRYTAGAIASIAFGQATGVVDGNVARVLCRVRAIGADPSSTLVSQQLWGLAQQLVDPARPGDFNQAAMELGATVCTPQRPLCSQCPVESLCRARQRVEQEQLLASGSLSGSPDVEECAPNTGQCHLCLPPSEPWDQTLGVVNFPRKASRKPPREESSATCVLEQPGALGAQILLVQRPNSGLLAGLWEFPSVTWEPSEQLQRKALLQELQRWAGPLPATHLRHLGEVVHTFSHIKLTYQVYGLALEGQTPVTTVPPGARWLTQEEFHTAAVSTAMKKVFRVYQGQQPGTCMGSKRSQVSSPCSRKKPRMGQQVLDNFFRSHISTDAHSLNSAAQ [S136G],0.03
